According to patent publication US20220049236A1:
Values belong to the substance of their own block, whether it stands above or below them.

Key:
HSP70 [1] = target: HSP70 (UniProt P0DMV8); experiment: ELISA, plate coated with HSP70
Nidogen-1 (human) [2] = target: Nidogen-1 (human) (UniProt P14543); experiment: IP from HDF supernatant, LFQ mass spectrometry; ratio against Fc control
[3] = target: Heat shock 70 kDa protein 6/7 (human) (UniProt P17066); experiment: as above
HSP70 [4] = target: HSP70 (UniProt P0DMV8); experiment: ELISA, plate coated with HSP70, bound protein detected with peroxidase-conjugated anti-human antibody
Nidogen-1 (human) [5] = target: Nidogen-1 (human) (UniProt P14543); experiment: IP from HDF supernatant, LFQ mass spectrometry; ratio against the glycosylation mutant
[6] = target: Heat shock 70 kDa protein 6/7 (human) (UniProt P17066); experiment: as above
[7] = target: LPD displayed on the surface of yeast cells (EBY100) (Saccharomyces cerevisiae; human) (UniProt P32781); experiment: flow cytometry of yeast cells displaying LPD, stained with Atto 633-labelled HSP70; the sample histogram is shifted to the right of the control histogram, whose Median RFU is printed as 26

Heat shock 70 kDa protein 6/7 (human), sequence (P17066 whole entry): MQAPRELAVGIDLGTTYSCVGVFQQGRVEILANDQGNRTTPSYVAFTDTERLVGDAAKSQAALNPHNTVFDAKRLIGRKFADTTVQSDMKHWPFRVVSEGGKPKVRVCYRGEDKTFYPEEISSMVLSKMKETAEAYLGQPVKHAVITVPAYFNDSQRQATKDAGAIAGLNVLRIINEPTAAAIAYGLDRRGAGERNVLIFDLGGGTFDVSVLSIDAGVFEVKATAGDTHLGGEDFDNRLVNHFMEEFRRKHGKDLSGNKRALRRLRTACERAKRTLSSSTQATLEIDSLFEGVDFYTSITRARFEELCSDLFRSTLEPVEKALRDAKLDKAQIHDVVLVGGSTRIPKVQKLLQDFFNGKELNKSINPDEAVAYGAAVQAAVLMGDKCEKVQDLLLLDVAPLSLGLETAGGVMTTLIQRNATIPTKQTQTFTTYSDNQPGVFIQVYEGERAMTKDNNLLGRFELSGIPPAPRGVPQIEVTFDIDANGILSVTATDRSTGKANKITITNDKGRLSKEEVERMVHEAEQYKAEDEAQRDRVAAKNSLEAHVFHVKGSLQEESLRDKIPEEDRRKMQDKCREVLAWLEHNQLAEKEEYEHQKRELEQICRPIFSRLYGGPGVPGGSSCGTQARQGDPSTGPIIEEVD
Nidogen-1 (human), sequence (P14543 29-1247 limits assumed): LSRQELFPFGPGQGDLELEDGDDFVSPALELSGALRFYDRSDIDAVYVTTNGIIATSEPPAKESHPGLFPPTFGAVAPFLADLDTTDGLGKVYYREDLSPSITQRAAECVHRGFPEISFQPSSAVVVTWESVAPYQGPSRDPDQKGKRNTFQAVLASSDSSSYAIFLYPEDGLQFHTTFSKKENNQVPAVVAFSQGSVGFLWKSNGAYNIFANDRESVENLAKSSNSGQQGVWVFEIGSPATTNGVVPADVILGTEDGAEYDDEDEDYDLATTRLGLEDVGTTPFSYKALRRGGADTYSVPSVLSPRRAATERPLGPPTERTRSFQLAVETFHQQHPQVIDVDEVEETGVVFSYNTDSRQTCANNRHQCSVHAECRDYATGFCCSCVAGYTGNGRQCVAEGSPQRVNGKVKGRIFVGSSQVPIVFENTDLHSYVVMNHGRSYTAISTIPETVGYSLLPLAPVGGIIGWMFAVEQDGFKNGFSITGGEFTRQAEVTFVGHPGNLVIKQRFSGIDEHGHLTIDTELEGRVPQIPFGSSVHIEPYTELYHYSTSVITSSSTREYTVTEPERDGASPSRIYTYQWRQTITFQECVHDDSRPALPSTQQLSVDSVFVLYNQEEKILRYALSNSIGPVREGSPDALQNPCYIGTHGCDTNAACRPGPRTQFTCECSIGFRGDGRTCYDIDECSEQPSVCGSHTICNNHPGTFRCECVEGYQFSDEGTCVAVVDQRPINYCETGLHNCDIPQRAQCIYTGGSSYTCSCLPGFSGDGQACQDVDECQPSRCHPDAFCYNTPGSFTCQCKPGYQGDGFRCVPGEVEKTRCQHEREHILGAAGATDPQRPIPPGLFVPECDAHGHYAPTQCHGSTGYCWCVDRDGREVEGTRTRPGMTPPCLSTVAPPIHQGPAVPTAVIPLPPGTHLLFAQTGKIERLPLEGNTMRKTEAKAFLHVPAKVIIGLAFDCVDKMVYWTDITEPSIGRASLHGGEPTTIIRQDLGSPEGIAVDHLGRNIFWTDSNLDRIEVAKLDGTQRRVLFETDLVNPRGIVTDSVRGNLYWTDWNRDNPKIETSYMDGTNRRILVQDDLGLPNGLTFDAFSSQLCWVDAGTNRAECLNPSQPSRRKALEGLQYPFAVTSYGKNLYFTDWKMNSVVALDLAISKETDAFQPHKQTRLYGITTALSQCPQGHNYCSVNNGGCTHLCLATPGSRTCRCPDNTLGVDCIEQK
HSP70, sequence (P0DMV8 whole entry): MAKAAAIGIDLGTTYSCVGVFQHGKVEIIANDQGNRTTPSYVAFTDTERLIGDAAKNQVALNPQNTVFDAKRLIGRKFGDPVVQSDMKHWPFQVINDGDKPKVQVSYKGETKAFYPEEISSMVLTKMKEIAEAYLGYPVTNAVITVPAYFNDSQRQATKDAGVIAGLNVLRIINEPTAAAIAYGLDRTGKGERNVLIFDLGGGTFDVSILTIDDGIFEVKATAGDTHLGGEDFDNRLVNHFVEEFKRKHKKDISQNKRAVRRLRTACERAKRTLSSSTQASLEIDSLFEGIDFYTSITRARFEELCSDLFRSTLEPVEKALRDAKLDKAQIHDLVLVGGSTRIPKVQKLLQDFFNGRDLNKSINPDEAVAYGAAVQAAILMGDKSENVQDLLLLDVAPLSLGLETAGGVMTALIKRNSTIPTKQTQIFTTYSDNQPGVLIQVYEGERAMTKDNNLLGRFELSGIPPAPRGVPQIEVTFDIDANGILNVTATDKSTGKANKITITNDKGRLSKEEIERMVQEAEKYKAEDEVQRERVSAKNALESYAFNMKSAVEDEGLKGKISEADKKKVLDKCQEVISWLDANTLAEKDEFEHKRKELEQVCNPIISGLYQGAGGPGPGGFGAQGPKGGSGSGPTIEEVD

EC50 (HSP70 [1]): 41 nM
Ratio Fc-LPD:Fc (Nidogen-1 (human) [2]): 9
Ratio Fc-LPD:Fc [3]: 78.4
EC50 (HSP70 [4]): 41 nM
Ratio Fc-LPD:Fc-LPDN346, 409, 456Q (Nidogen-1 (human) [5]): 0.7
Ratio Fc-LPD:Fc-LPDN346, 409, 456Q [6]: 0.4
Substance: Fc-LPD (lysyl oxidase prodomain fused to Fc antibody fragment) (Fc fusion)

Ratio Fc-LPD-N346, 409, 456Q:Fc (Nidogen-1 (human) [2]): 13.7
Ratio Fc-LPD-N346, 409, 456Q:Fc [3]: 194
Substance: Fc-LPD N346, 362, 409Q (from UniProt P28300 22-169) (Fc fusion)

Median RFU [7]: 130 RFU
Substance: HSP70 (from UniProt P0DMV8 1-641)
